Measured values: patent US20260232827A1 (Zymeworks, published 2026)

Legend:
Test in all cases: flow cytometry, transfected HEK293-6e cells, antibody 200 nM;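 note: cells incubated with antibody for 24 h at 4 °C, background taken as average MFI of unstained cells without primary antibody, at least 1,000 events per well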
[1] = target: T1, Construct 4 (chimeric human NaPi2b, swap in NaPi2c in 341-358) (human)
T1 construct: also called CL_#13435

[2] = target: T2, Construct 2 (chimeric human NaPi2b, swap in NaPi2c in 280-301) (human)
T2 construct: also called CL_#29915

[3] = target: T3, Construct 1 (chimeric human NaPi2b, swap in NaPi2c in 239-259) (human)
T3 construct: also called CL_#29914

[4] = target: T4, Full length human NaPi2b (sodium-dependent phosphate transporter 2B, SLC34A2) (human, UniProt O95436 1-690)
T4 construct: also called huNaPi2b; CL_#13432
T4 sequence: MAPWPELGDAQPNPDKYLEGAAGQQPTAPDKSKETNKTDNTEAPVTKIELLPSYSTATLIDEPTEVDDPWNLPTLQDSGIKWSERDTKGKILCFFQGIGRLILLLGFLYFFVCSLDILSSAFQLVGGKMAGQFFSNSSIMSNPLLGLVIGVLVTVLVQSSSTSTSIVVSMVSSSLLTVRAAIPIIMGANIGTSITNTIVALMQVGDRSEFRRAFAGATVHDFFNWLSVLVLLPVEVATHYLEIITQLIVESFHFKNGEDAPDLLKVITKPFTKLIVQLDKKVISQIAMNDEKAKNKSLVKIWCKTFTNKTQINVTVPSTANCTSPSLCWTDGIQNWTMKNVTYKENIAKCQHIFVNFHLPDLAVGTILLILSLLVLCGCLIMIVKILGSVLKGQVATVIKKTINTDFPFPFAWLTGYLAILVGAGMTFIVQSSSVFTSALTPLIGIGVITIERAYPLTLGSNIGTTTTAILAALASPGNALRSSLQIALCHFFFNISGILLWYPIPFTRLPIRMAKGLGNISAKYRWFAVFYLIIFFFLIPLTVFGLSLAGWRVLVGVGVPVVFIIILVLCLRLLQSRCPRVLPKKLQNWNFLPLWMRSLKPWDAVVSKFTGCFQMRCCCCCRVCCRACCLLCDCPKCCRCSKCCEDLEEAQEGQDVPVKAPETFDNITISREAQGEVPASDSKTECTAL

[5] = target: T5, Construct 6 (human NaPi2b del 317-333) (human, UniProt O95436 1-690)
T5 construct: also called CL_#29919
T5 sequence: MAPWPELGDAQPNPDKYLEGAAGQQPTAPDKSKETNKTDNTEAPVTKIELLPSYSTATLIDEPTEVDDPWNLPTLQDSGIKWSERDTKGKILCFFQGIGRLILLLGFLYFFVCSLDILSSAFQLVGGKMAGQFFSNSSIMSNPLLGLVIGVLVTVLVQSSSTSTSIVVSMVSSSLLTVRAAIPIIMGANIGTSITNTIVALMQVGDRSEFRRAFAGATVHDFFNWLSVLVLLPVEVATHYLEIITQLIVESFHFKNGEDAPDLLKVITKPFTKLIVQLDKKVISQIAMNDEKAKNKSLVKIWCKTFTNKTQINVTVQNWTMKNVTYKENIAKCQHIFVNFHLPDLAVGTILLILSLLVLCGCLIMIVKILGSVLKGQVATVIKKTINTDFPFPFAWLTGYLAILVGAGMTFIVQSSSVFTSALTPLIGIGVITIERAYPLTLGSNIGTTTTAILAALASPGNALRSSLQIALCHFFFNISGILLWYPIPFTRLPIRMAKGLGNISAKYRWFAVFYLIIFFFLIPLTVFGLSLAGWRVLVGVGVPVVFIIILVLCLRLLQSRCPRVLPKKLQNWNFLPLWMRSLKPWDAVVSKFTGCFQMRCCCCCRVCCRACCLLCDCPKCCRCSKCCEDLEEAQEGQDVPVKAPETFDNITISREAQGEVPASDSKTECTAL

[6] = target: T6, Construct 3 (chimeric human NaPi2b, swap in NaPi2c in 304-321) (human)
T6 construct: also called CL_#29916

[7] = target: T7, Construct 5 (chimeric human NaPi2b, swap in NaPi2a in 304-348) (human)
T7 construct: also called CL_#13436

[8] = target: T8, Construct 7 (human NaPi2b del 317-326) (human, UniProt O95436 1-690)
T8 construct: also called CL_#29921
T8 sequence: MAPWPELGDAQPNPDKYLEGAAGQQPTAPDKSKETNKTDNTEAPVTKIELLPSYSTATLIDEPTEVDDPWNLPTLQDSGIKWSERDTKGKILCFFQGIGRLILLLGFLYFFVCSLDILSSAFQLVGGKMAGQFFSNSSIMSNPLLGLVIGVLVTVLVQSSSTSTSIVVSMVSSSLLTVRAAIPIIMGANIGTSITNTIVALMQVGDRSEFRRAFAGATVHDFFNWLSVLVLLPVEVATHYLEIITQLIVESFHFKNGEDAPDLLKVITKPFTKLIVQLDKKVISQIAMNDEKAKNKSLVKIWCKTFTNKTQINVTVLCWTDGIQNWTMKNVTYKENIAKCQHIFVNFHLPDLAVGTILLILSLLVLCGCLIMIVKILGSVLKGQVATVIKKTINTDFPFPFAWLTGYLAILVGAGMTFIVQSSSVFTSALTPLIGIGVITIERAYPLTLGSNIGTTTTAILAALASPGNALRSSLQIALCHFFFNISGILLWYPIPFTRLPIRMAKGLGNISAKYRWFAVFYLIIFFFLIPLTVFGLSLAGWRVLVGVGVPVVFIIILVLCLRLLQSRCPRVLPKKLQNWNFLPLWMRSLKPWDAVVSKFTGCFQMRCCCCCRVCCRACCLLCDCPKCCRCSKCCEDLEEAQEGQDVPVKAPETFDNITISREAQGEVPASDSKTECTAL

Binder	Background-Subtracted AF647 Mean Fluorescence Intensity [1]	Background-Subtracted AF647 Mean Fluorescence Intensity [2]	Background-Subtracted AF647 Mean Fluorescence Intensity [3]	Background-Subtracted AF647 Mean Fluorescence Intensity [4]	Background-Subtracted AF647 Mean Fluorescence Intensity [5]	Background-Subtracted AF647 Mean Fluorescence Intensity [6]	Background-Subtracted AF647 Mean Fluorescence Intensity [7]	Background-Subtracted AF647 Mean Fluorescence Intensity [8]
MX35 (v18992), reference anti-NaPi2b antibody (antibody, human IgG1, kappa) heavy 1: GQVQLVQSGAEVVKPGASVKMSCKASGYTFTGYNIHWVKQAPGQGLEWIGAIYPGNGDTSYKQKFRGRATLTADTSTSTVYMELSSLRSEDSAVYYCARGETARATFAYWGQGTLVTVSSASTKGPSVFPLAPSSKSTSGGTAALGCLVKDYFPEPVTVSWNSGALTSGVHTFPAVLQSSGLYSLSSVVTVPSSSLGTQTYICNVNHKPSNTKVDKKVEPKSCDKTHTCPPCPAPELLGGPSVFLFPPKPKDTLMISRTPEVTCVVVDVSHEDPEVKFNWYVDGVEVHNAKTKPREEQYNSTYRVVSVLTVLHQDWLNGKEYKCKVSNKALPAPIEKTISKAKGQPREPQVYVYPPSRDELTKNQVSLTCLVKGFYPSDIAVEWESNGQPENNYKTTPPVLDSDGSFALVSKLTVDKSRWQQGNVFSCSVMHEALHNHYTQKSLSLSPG heavy 2: not shown light: GDIQMTQSPSSLSASVGDRVTITCSASQDIGNFLNWYQQKPGKTVKVLIYYTSSLYSGVPSRFSGSGSGTDYTLTISSLQPEDFATYYCQQYSKLPLTFGQGTKLELKRTVAAPSVFIFPPSDEQLKSGTASVVCLLNNFYPREAKVQWKVDNALQSGNSQESVTEQDSKDSTYSLSSTLTLSKADYEKHKVYACEVTHQGLSSPVTKSFNRGEC	764 MFI	1360 MFI	1720 MFI	979 MFI	-2 MFI	802 MFI	219 MFI	298 MFI
palivizumab (v21995), anti-RSV antibody, negative control (antibody, human IgG1, kappa, V domains shown) VH: QVTLRESGPALVKPTQTLTLTCTFSGFSLSTSGMSVGWIRQPPGKALEWLADIWWDDKKDYNPSLKSRLTISKDTSKNQVVLKVTNMDPADTATYYCARSMITNWYFDVWGAGTTVTVSS VL: DIQMTQSPSTLSASVGDRVTITCKSQLSVGYMHWYQQKPGKAPKLLIYDTSKLASGVPSRFSGSGSGTEFTLTISSLQPDDFATYYCFQGSGYPFTFGGGTKLEIKR	12 MFI	-30 MFI	12 MFI	19 MFI	2 MFI	-5 MFI	40 MFI	-97 MFI
v38591 (humanized anti-NaPi2b antibody, H1L2, wild-type Fc, heavy chains with C-terminal lysine) (antibody, human IgG1, kappa, Full-size human IgG1/kappa antibody; also called v38591 (wild-type Fc)) heavy: not shown light: DVQMTQSPSSLSASVGDRVTITCRASQDVYSYLNWYQQKPGKAVKLLIYYTSRLQSGVPSRFSGSGSGTDYTLTISSLQPEDFATYYCQQYNIFPWTFGQGTKLEIKRTVAAPSVFIFPPSDEQLKSGTASVVCLLNNFYPREAKVQWKVDNALQSGNSQESVTEQDSKDSTYSLSSTLTLSKADYEKHKVYACEVTHQGLSSPVTKSFNRGEC	933 MFI	1410 MFI	2160 MFI	989 MFI	210 MFI	810 MFI	204 MFI	626 MFI
lifastuzumab (v18993), reference anti-NaPi2b antibody (antibody, human IgG1, kappa) heavy 1: GEVQLVESGGGLVQPGGSLRLSCAASGFSFSDFAMSWVRQAPGKGLEWVATIGRVAFHTYYPDSMKGRFTISRDNSKNTLYLQMNSLRAEDTAVYYCARHRGFDVGHFDFWGQGTLVTVSSASTKGPSVFPLAPSSKSTSGGTAALGCLVKDYFPEPVTVSWNSGALTSGVHTFPAVLQSSGLYSLSSVVTVPSSSLGTQTYICNVNHKPSNTKVDKKVEPKSCDKTHTCPPCPAPELLGGPSVFLFPPKPKDTLMISRTPEVTCVVVDVSHEDPEVKFNWYVDGVEVHNAKTKPREEQYNSTYRVVSVLTVLHQDWLNGKEYKCKVSNKALPAPIEKTISKAKGQPREPQVYVYPPSRDELTKNQVSLTCLVKGFYPSDIAVEWESNGQPENNYKTTPPVLDSDGSFALVSKLTVDKSRWQQGNVFSCSVMHEALHNHYTQKSLSLSPG heavy 2: not shown light: GDIQMTQSPSSLSASVGDRVTITCRSSETLVHSSGNTYLEWYQQKPGKAPKLLIYRVSNRFSGVPSRFSGSGSGTDFTLTISSLQPEDFATYYCFQGSFNPLTFGQGTKVEIKRTVAAPSVFIFPPSDEQLKSGTASVVCLLNNFYPREAKVQWKVDNALQSGNSQESVTEQDSKDSTYSLSSTLTLSKADYEKHKVYACEVTHQGLSSPVTKSFNRGEC	744 MFI	1230 MFI	1510 MFI	893 MFI	183 MFI	943 MFI	302 MFI	21 MFI
